The numbers were not newly measured in paper PMC2778592, which cites them from elsewhere.

This data set has as its target EGFR (Homo sapiens) (UniProt P00533).

“tenascin-C Ten14 EGF-L repeat (from UniProt P24821)”: the Kd is 74 µM.

What is called Kd is the equilibrium constant for the complex coming apart.
